Experiment [1] has as its target T1, His-tagged human CD73 ECD (human) (UniProt P21589).
T1 sequence: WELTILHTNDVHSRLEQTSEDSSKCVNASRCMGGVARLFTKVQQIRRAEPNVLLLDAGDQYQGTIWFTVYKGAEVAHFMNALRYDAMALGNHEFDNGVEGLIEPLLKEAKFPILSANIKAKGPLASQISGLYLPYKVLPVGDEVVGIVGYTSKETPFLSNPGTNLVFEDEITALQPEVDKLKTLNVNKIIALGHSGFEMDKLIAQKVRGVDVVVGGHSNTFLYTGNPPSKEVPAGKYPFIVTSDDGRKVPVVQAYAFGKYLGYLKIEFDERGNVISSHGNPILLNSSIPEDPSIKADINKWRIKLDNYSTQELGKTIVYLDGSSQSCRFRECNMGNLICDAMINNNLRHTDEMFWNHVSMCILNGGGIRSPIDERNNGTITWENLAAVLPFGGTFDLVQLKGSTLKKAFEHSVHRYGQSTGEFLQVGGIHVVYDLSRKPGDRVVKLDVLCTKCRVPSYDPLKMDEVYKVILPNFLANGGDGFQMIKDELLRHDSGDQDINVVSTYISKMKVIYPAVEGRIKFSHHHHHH
Description: SPR, mAb captured, His-tagged CD73 ECD injected. Background: Surface plasmon resonance follows binding to a sensor surface in real time, without labels.

In experiment [2] the target is His-tagged cynomolgus CD73 ECD (cynomolgus monkey (Macaca fascicularis)). The experiment in a line: SPR, mAb captured, His-tagged CD73 ECD injected.
In experiment [3] the target is T1, His-tagged human CD73 ECD (human). Description: SEC-MALS, mAb:CD73 1:1.
The target is the same in experiment [4]. Description: SEC-MALS, mAb:CD73 0.1:1.
Experiment [5] shares this target. Description: SEC-MALS, mAb:CD73 0.5:1. A general note: Size exclusion chromatography separates by hydrodynamic size, large species first.
Experiment [6] has as its target T2, human CD73 ECD fused C-terminally to human IgG1 Fc (human) (UniProt P21589).
T2 sequence: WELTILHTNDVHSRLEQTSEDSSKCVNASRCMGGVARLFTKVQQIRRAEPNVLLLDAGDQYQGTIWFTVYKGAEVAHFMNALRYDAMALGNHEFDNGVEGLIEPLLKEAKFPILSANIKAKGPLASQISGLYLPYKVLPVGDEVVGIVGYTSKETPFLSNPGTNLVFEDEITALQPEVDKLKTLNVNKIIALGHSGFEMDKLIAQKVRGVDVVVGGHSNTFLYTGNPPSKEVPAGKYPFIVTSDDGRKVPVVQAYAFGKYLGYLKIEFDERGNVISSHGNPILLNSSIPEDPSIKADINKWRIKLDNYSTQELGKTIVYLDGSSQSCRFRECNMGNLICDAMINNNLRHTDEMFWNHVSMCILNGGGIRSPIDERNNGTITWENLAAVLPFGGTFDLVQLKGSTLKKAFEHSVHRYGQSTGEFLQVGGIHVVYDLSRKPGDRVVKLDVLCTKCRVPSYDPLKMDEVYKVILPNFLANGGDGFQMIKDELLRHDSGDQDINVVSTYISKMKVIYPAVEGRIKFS
Description: SPR, Fc-tagged CD73 ECD captured, Fab injected.

For experiment [7], the target named is cynomolgus CD73 ECD fused C-terminally to human IgG1 Fc (cynomolgus monkey (Macaca fascicularis); human). Description: SPR, Fc-tagged CD73 ECD captured, Fab injected.
The target in experiment [8] is human CD73 expressed on cells (human) (UniProt P21589). The experiment in a line: cell-based or functional assay. The conditions noted are these: scale: % viable cells compared to untreated cells.

One may read the Kd as the concentration at which binding is half-saturated. As usually defined, the koff is the first-order rate constant of dissociation. In general, kon refers to the second-order rate constant of association.

B1: CPX006 analogue (Corvus) (antibody, from another filing, IgG1, V domains shown)
VH: QVQLVQSGAEVEKPGASVKVSCKASGYTFTSYWITWVRQAPGQGLEWMGDIYPGSGNTNYNEKFKTRVTITADKSTSTAYMELSSLRSEDTAVYYCAKEGGLTTEDYALDYWGQGTLVTVSS
VL: EIVLTQSPATLSLSPGERATLSCRASKNVSTSGYSYMHWYQQKPGQAPRLLIYLASNLESGIPPRFSGSGYGTDFTLTINNIESEDAAYYFCQHSRELPFTFGQGTKVEIKR
In experiment [1], B1 registered a dissociation constant Kd of 0.02 nM, an off-rate (koff) of 2.4e-06 s⁻¹ and a kon of 170000 M⁻¹ s⁻¹. Besides, in experiment [2], the equilibrium dissociation constant (Kd) was determined as 0.33 nM, the koff was found to be 1.4e-05 s⁻¹ and the kon stood at 28000 M⁻¹ s⁻¹. In experiment [3], this molecule registered a molecular mass of complex, Peak 2 (MW, kDa) of 148 kDa; a molecular mass of complex, Peak 3 (MW, kDa) of 246 kDa; a molecular mass of complex, Peak 4 (MW, kDa) of 363 kDa. Further, in experiment [4], the molecular mass of complex, Peak 2 (MW, kDa) is 121 kDa; the molecular mass of complex, Peak 3 (MW, kDa) worked out at 236 kDa; the molecular mass of complex, Peak 4 (MW, kDa) came to 339 kDa. Moreover, in experiment [5], the molecular mass of complex, Peak 2 (MW, kDa) is 143 kDa; the molecular mass of complex, Peak 3 (MW, kDa) is 245 kDa; the molecular mass of complex, Peak 4 (MW, kDa) was found to be 349 kDa.

B2: CPX006 analogue Fab fragment (Fab, from another filing, V domains shown)
VH: B1 VH
VL: B1 VL
In experiment [6], B2 came in with a Kd of 80.3 nM, an off-rate constant (koff) of 0.00053 s⁻¹ and a kon of 6600 M⁻¹ s⁻¹. In experiment [7], this molecule registered a Kd of 71.6 nM, a koff of 0.00048 s⁻¹ and a kon of 6700 M⁻¹ s⁻¹.

B3: 11E1 analogue (Innate Pharma) (antibody, from another filing, IgG1, V domains shown)
VH: EIQLQQSGPELVKPGASVKVSCKASGYAFTSYNMYWVKQSHGKSLEWIGYIDPYNGGTSYNQKFKGKATLTVDKSSSTAYMHLNSLTSEDSAVYYCARGYGNYKAWFAYWGQGTLVTVSA
VL: DAVMTQTPKFLLVSAGDRVTITCKASQSVTNDVAWYQQKPGQSPKLLIYYASNRYTGVPDRFTGSGYGTDFTFTISTVQAEDLAVYFCQQDYSSLTFGAGTKLELK
For B3, in experiment [1], the dissociation constant (Kd) was determined as 0.1 nM, the off-rate constant (koff) was 5.6e-06 s⁻¹ and the on-rate (kon) came out at 57000 M⁻¹ s⁻¹. In experiment [2], this molecule registered a Kd of 0.14 nM, a koff of 1.3e-05 s⁻¹ and a kon of 84000 M⁻¹ s⁻¹. Further, in experiment [3], the molecular mass of complex, Peak 2 (MW, kDa) is 270 kDa; the molecular mass of complex, Peak 3 (MW, kDa) was 511 kDa; the molecular mass of complex, Peak 4 (MW, kDa) was 802 kDa. Moreover, in experiment [4], the molecular mass of complex, Peak 2 (MW, kDa) was determined as 265 kDa; the molecular mass of complex, Peak 3 (MW, kDa) was 704 kDa; the molecular mass of complex, Peak 4 (MW, kDa) worked out at 11800 kDa. Further, in experiment [5], the molecular mass of complex, Peak 2 (MW, kDa) amounted to 277 kDa; the molecular mass of complex, Peak 3 (MW, kDa) was determined as 566 kDa; the molecular mass of complex, Peak 4 (MW, kDa) was 3370 kDa.

B4: 11E1 analogue Fab fragment (Fab, from another filing, V domains shown)
VH: B3 VH
VL: B3 VL
In experiment [6], B4 yielded a Kd of 9.8 nM, a koff of 0.0028 s⁻¹ and an on-rate (kon) of 290000 M⁻¹ s⁻¹. For the same molecule, in experiment [7], the Kd amounted to 8.7 nM, the off-rate constant (koff) was determined as 0.0028 s⁻¹ and the on-rate (kon) was found to be 320000 M⁻¹ s⁻¹.

B5: oleclumab analogue (MEDI9447, Medimmune) (antibody, INN chains, looked up, V domains shown)
VH: EVQLLESGGGLVQPGGSLRLSCAASGFTFSSYAYSWVRQAPGKGLEWVSAISGSGGRTYYADSVKGRFTISRDNSKNTLYLQMNSLRAEDTAVYYCARLGYGRVDEWGRGTLVTVSS
VL: QSVLTQPPSASGTPGQRVTISCSGSLSNIGRNPVNWYQQLPGTAPKLLIYLDNLRLSGVPDRFSGSKSGTSASLAISGLQSEDEADYYCATWDDSHPGWTFGGGTKLTVL
modifications: IgG1-TM
In experiment [1], B5 yielded a Kd of 0.02 nM, an off-rate (koff) of 2.5e-06 s⁻¹ and a kon of 110000 M⁻¹ s⁻¹. Further, in experiment [2], the Kd worked out at 0.06 nM, the off-rate (koff) came out at 6.6e-06 s⁻¹ and the kon was 140000 M⁻¹ s⁻¹. Further, in experiment [3], the molecular mass of complex, Peak 2 (MW, kDa) is 389 kDa; the molecular mass of complex, Peak 3 (MW, kDa) came out at 682 kDa; the molecular mass of complex, Peak 4 (MW, kDa) worked out at 1040 kDa. For the same molecule, in experiment [4], the molecular mass of complex, Peak 2 (MW, kDa) came out at 194 kDa; the molecular mass of complex, Peak 3 (MW, kDa) was determined as 432 kDa; the molecular mass of complex, Peak 4 (MW, kDa) turned out to be 821 kDa. In addition, in experiment [8], the viable MDA-MB-468 cells in the presence of 300 µM AMP (WST-1) was 70 to 80. In experiment [5], this molecule gave a molecular mass of complex, Peak 2 (MW, kDa) of 870 kDa; a molecular mass of complex, Peak 3 (MW, kDa) of 559 kDa; a molecular mass of complex, Peak 4 (MW, kDa) of 1010 kDa.

B6: oleclumab analogue Fab fragment (Fab, INN chains, looked up, V domains shown)
VH: B5 VH
VL: B5 VL
modifications: Fab
In experiment [6], B6 had a dissociation constant Kd of 0.06 nM, an off-rate (koff) of 3.4e-05 s⁻¹ and a kon of 560000 M⁻¹ s⁻¹. In experiment [7], this molecule registered a Kd of 0.07 nM, an off-rate (koff) of 4.3e-05 s⁻¹ and a kon of 580000 M⁻¹ s⁻¹.

Source of the values: US20210070876A1.
